What is called Kd is the equilibrium constant for the complex coming apart. A high value points to lower affinity.

For test [1], the target named is HIV-1 gp41 (strain NL4-3) (HIV-1 strain NL4-3). Put plainly: cell-based or functional assay.
The target in test [2] is HIV-1 gp41 (strain 89.6) (HIV-1 strain 89.6). The experiment in a line: cell-based or functional assay.
Test [3] has as its target HIV-1 gp41 (strain BaL) (HIV-1 strain BaL). Put plainly: cell-based or functional assay.
For test [4], the target named is HIV-1 gp41 (strain HXB2) (HIV-1 strain HXB2) (UniProt P04578). The experiment in a line: cell-based or functional assay.
Test [5] has as its target HIV-1 gp41 (strain MN-1) (HIV-1 strain MN-1) (UniProt P05877). Put plainly: cell-based or functional assay.
Test [6] deals with Biotin-IZN36. Put plainly: BIAcore SPR; D5 IgG immobilized on CM5 chip, biotin-IZN36 in solution.
Test [7] concerns the target (Biotin-CCIZN23)3. Put plainly: BIAcore SPR; D5 IgG immobilized on CM5 chip, (biotin-CCIZN23)3 in solution. For orientation: Surface plasmon resonance follows binding to a sensor surface in real time, without labels.
Test [8] addresses (Biotin-CCIZN23)3. Put plainly: BIAcore SPR; (biotin-CCIZN23)3 immobilized on SA chip, D5-scFv in solution.
Test [9] addresses D5 IgG. Put plainly: AlphaScreen competition: peptide titrated against the binding of D5-IgG to biotinylated-IQN17.

Consider D5 IgG (antibody), for which the IC50, single-cycle HIV infectivity assay amounted to 226 nM in test [1]; 1750 nM in [2]; 93 nM in test [3]; 310 nM in test [4]; 393 nM in test [5]. In [4], this substance displayed an IC50, HIV single cycle infectivity assay, HIV-HXB2 of 1350 nM. In test [4], this substance returned an IC50, HIV-1 single-cycle infectivity assay, strain HXB2 (FIG. 17A) of 144 µg/mL. In addition, the Kd in test [6] came out at 0.17 nM; in test [7], 0.22 nM.

As to D5-scFv, the Kd in test [8] is 0.2 nM.

In the case of IZN17 L565M (peptide), the IC50 (read off the curve) in [9] was determined as 10 nM.

Regarding IZN17 Q567R (peptide), the IC50 (read off the curve) in test [9] was found to be 10 nM.

With T-20 (peptide), the IC50, single-cycle HIV infectivity assay was determined as 29 nM in [2], 2.4 nM in test [3] and 5.3 nM in [4].

(Values after patent US20070224212A1.)
